Results on 2 molecules are retold here after paper PMC7320042.

Where two headings read alike, the source gives them in different places.

Test [1] deals with recombinant trypsin (UniProt P00761). Nature of the test: enzyme inhibition kinetics (Lineweaver-Burk); trypsin (1.35 mg/mL stock) activity on BAEE (0.01-0.075 mM) with and without SKTI or rSKTI (0.63 mg/mL stock); 25 °C, 67 mM phosphate buffer pH 7.6; KI from Vmax/V'max = 1 + [I]/KI.
Test [2] shares this target. Put plainly: enzyme inhibition titration; trypsin (1.35 mg/mL) inhibited by increasing contents of rSKTI; residual activity on BAEE, 67 mM phosphate buffer pH 7.6, 25 °C; ratio worked out from the concentrations of trypsin and rSKTI.
Test [3] shares this target.
For test [4] the target is unchanged. Nature of the test: enzyme inhibition kinetics (Lineweaver-Burk); trypsin (1.35 mg/mL stock) activity on BAEE (0.01-0.075 mM) with and without SKTI or rSKTI (0.63 mg/mL stock); 25 °C, 67 mM phosphate buffer pH 7.6; KI from Vmax/V'max = 1 + [I]/KI. This is another data set of the same source.

Sequence of UniProt P00761 (P00761 whole entry): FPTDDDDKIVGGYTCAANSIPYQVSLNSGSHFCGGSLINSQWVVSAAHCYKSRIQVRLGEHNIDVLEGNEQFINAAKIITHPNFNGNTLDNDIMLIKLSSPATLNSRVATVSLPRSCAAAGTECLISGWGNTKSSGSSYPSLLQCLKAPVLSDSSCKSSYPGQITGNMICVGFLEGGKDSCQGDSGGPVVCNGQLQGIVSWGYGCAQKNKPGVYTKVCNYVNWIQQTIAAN

B1: recombinant soybean Kunitz trypsin inhibitor (natural protein)
chain: DFVLDNEGNPLENGGTYYILSDITAFGGIRAAPTGNERCPLTVVQSRNELDKGIGTIISSPYRIRFIAEGHPLSLKFDSFAVIMLCVGIPTEWSVVEDLPEGPAVKIGENKDAMDGWFRLERVSDDEFNNYKLVFCPQQAEDDKCGDIGISIDHDDGTRRLVVSKNKPLVVQFQKLDKESL
Turning to B1, the inhibition constant (Ki) came out at 2.29 µM in the test with recombinant trypsin [1] and 2.2 µM in the test with recombinant trypsin [4]. Besides, in the test with recombinant trypsin [2], the stoichiometry N came out at 1. Moreover, in the test with recombinant trypsin [3], the inhibition of trypsin (1.35 mg/mL) activity on BAEE by increasing rSKTI: IC50, the amount of rSKTI when half trypsin activity was inhibited; activity completely inhibited at 1.5 mg/mL rSKTI was 500 µg/mL.

B2: natural soybean Kunitz trypsin inhibitor (natural protein)
chain: DFVLDNEGNPLENGGTYYILSDITAFGGIRAAPTGNERCPLTVVQSRNELDKGIGTIISSPYRIRFIAEGHPLSLKFDSFAVIMLCVGIPTEWSVVEDLPEGPAVKIGENKDAMDGWFRLERVSDDEFNNYKLVFCPQQAEDDKCGDIGISIDHDDGTRRLVVSKNKPLVVQFQKLDKESL
Consider B2, for which, in the test with recombinant trypsin [4], the inhibition constant (Ki) came out at 1.67 µM.
